In article PMC10849960:
Ends that are not written are not given here.

Key:
[1] = biological target: RFdiffusion de novo PTH binder (picomolar); experiment: affinity purification with mass spectrometry; binder-conjugated beads capture PTH from human plasma supplemented with PTH; recovery by LC-MS/MS of the N-terminal tryptic peptide; triplicates
[2] = biological target: RFdiffusion de novo PTH binder (picomolar); experiment: affinity purification with mass spectrometry; binder-conjugated magnetic beads capture the peptide from buffer; recovery by LC-MS/MS (tryptic N-terminal peptide for PTH, intact peptide for GCG); triplicates

SVSEIQLMHNLGKHLNSMERVEWLRKKLQDVHNF (also: fluorescently labelled, label and position not given here) [parathyroid hormone (PTH)]
percent recovery [1]: 43%
percent recovery [2]: 53%
